Test results published in the Human Domainome abundance scans (Beltran et al. 2025).

B1: Protein C-ets-1, residues 55 to 135; numbered along this chain, P14921 (parent)
chain: GFTKEQQRLGIPKDPRQWTETHVRDWVMWAVNEFSLKGVDFQKFCMNGAALCALGKDCFLELAPDFVGDILWEHLEILQKE

Variants of: B1
Assay: abundance fitness (aPCA) (normalised: wild type 0, dead -1); higher = more abundant; growth selection in yeast, the domain comes from the species named
Settings: Homo sapiens

Abundance fitness: each site, then its substitutions
A53: Q -0.097; G -0.028; W -0.583; D 0.067; T -0.039; I -0.452; N 0.01; E 0.052; H -0.188; S 0.016; R -0.046; M -0.09; Y -0.583; L -0.227; F -0.655; P -0.943; K -0.021
G48: S -0.911; L -1.05; P -1.02; E -0.806; A -0.972; V -0.805; Q -0.931; R -0.933; I -1.03; H -0.94; C -0.884; W -0.797; K -0.911; M -1.07; N -0.758
G55: N 0.03; F -0.992; R -0.04; Q -0.08; H -0.055; K 0.029; C 0.019; V -0.448; D 0.061; E 0.031; L -0.791; Y -0.502; M -0.433; P 0.01; A 0.002; T 0.041
M46: Y -0.203; T -0.477; A -0.652; S -0.724; L -0.074; C -0.317; W -0.631; R -0.507; I -0.154; F -0.028; G -0.671; H -0.441; K -0.376; D -0.777; Q -0.335; V -0.234; P -0.852; E -0.991
A49: R -0.013; D -0.04; N -0.139; V -0.162; T -0.048; H -0.058; L -0.132; G -0.126; M -0.055; C -0.372; Q -0.011; F -0.339; E 0.02; P -0.137; W -0.3; K 0.085; Y -0.262; I -0.237
L54: S -0.445; K -0.102; D -0.791; E -0.614; C -0.666; I -0.078; G -0.229; V -0.254; A -0.338; T -0.33; Q -0.299; P -0.775; Y -0.292; M -0.022; N -0.302; H -0.598; W -0.582; R -0.238
K37: Y -0.255; V -0.017; W -0.213
V39: C -0.194; R -0.749; D -0.699; M -0.267; N -0.755; A -0.511; G -0.714; S -0.624; K -0.533; Y -0.688; F -0.239; L -0.141; W -0.445; Q -0.683; I -0.061; T -0.387; H -0.537
Q42: F -0.664; Y -0.291; A -0.071; P -0.214; C -0.259; T -0.052; V -0.358; G 0.007; W -0.681; I -0.619; R -0.017; D -0.029; L -0.307; N -0.047; M -0.237; E 0.021; S -0.007; K -0.075; H -0.068
C45: S 0.01; A 0.053; N 0.116; E 0.022; R -0.024; W -0.041; L -0.087; Y -0.032; M -0.019; P -0.344; F -0.028; T -0.007; H 0.052; Q -0.002; V -0.05; K -0.067
K43: S -0.185; V -0.425; G -0.289; D -0.2; M -0.315; H -0.187; Q -0.086; C -0.206; R -0.007; F -0.494; E -0.283; Y -0.351; T -0.302; N -0.049; I -0.424
F44: G -1.02; H -0.89; V -0.539; E -0.73; R -0.939; Q -1.08; W -0.138; M -0.275; P -0.892; I -0.38; N -1.01; K -1.04; S -0.76; A -0.769; T -0.766; D -0.724; C -1.01
C52: E -0.542; W -0.641; V -0.066; S -0.185; H -0.534; A -0.303; R -0.564; F -0.325; Y -0.472; Q -0.494; N -0.497; P -0.896; G -0.562; K -0.627; M -0.079; I -0.029
A50: Q 0.015; E 0.02; Y -0.351; F -0.375; M -0.007; L -0.202; H -0.076; C -0.116; R -0.063; W -0.548; T -0.026; D 0.026; K 0.042; P -0.811; G -0.202; I -0.236
L51: A -0.847; R -0.788; D -0.97; N -0.718; E -0.952; W -0.893; Y -0.94; F -0.894; T -0.961; C -0.803; H -0.813; K -1.08; P -0.794; G -1.03; M -0.11; Q -0.923; I -0.15
F41: E -0.031; S -0.042; K -0.072; M 0.056; T 0.007; C -0.034; Q -0.134; N -0.039; W -0.1; I 0.022; G -0.128; R -0.094; L 0.051; D -0.053; V 0.044; Y 0.055; H 0.045; P 0.059
G38: C -0.334; S -0.123; F -0.43; Q -0.221; N 0.052; I -0.428; T -0.201; H 0; D -0.039; W -0.467; E -0.103; K -0.055; L -0.492; V -0.476; A -0.202; M -0.273; P -0.172; R -0.18
D57: F -0.303; G -0.083; K 0.017; L -0.216; C -0.106; N -0.02; A -0.049; H -0.049; M -0.158; I -0.185; E 0.001
K56: P -0.493; T -0.878; M -0.357; G -0.851; S -0.7; D -0.979; H -0.033; R -0.004; W -0.729; I -0.702; L -0.635; F -0.865; A -0.482; V -0.558; Y -0.134; C -0.814
N47: D -0.007; K -0.204; Q -0.277; L -0.879; S -0.003; M -0.881; G -0.185; V -0.903; E -0.165; C -0.223; T 0.065; P 0.014; W -1.01; H -0.152
D40: H -0.225; Q -0.045; P -0.343; S -0.164; A -0.294; I -0.32; R -0.245; Y -0.651; W -0.77; E -0.059; V -0.209; F -0.685; M -0.368; G -0.546; N -0.146; C -0.134; T -0.363; L -0.482; K -0.234
